Results reported in patent US20240034816A1 (Sanofi, published 2024).

Assays:
[1] = molecular target: T1, human CD32a (human FcγRIIA) (human, UniProt P12318 34-217, limits assumed); experiment: SPR, fit Steady State Affinity, Exp No 1
T1 construct: also called HuFcyRIIa
T1 sequence (looked up): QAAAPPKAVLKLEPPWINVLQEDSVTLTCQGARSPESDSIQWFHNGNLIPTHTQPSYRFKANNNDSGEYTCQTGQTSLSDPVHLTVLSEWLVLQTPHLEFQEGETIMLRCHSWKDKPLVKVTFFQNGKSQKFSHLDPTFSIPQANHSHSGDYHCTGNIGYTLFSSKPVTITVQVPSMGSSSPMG

[2] = molecular target: T2, human CD16a (human FcγRIIIA), V isoform (human, UniProt P08637 17-208); experiment: SPR (Biacore T200), His-tagged huCD16a captured by anti-His antibody on CM5 chip, antibody injected at 5.8-3000 nmol/L, steady state fit
T2 construct: also called HuFcyRIIIaV; CD16a (V176)
Source text: All analyte concentrations were run in duplicate together with multiple buffer blanks for double referencing.

cynomolgus CD16 = molecular target: T3, cynomolgus CD16 (cynomolgus, UniProt Q8SPW2 17-208); experiment: SPR, fit Two State Reaction, Exp No 3
T3 construct: also called CyFcyRIII

[3] = molecular target: T2, human CD16a (human FcγRIIIA), V isoform; experiment: SPR, fit Two State Reaction, Exp No 3
[4] = molecular target: T4, human BCMA on RPMI 8226 multiple myeloma cells (human, UniProt Q02223 1-184); experiment: flow cytometry titration on RPMI 8226 cells, detection with goat anti-human IgG Fcγ-PE, 4-parameter fit; mean of 5 independent titrations
T4 construct: whole, on cells; also called BCMA on RPMI cells
T4 sequence (looked up): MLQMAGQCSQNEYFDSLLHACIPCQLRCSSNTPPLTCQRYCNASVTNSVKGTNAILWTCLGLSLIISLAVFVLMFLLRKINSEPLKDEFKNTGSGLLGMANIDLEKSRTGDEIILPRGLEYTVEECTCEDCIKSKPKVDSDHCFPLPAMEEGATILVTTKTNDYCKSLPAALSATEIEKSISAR
Experimental: After staining, cells were resuspended in BD Cellfix and analyzed by flow cytometry. Parameters were recorded and analysed with FlowJo software. Staining EC50 values were calculated with GraphPad prism using 4 parameter logistics non-linear regression model.

human CD64 (human FcγRI) [5] = molecular target: T5, human CD64 (human FcγRI) (human, UniProt P12314 16-292, limits assumed); experiment: SPR, fit 1:1 Binding, Exp No 1
T5 construct: also called HuFcyRI

cynomolgus CD32a = molecular target: T6, cynomolgus CD32a (cynomolgus); experiment: SPR, fit Steady State Affinity, Exp No 3
T6 construct: also called CyFcyRIIa

[6] = molecular target: T7, human CD32b (human FcγRIIB) (human, UniProt P31994 43-217, limits assumed); experiment: SPR, fit Steady State Affinity, Exp No 3
T7 construct: also called HuFcyRIIb
T7 sequence (looked up): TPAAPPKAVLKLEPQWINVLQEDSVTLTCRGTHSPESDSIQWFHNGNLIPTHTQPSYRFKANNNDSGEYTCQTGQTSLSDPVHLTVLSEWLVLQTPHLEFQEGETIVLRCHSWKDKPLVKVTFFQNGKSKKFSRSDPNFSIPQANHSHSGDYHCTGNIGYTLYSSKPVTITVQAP

[7] = molecular target: T1, human CD32a (human FcγRIIA); experiment: SPR, fit Steady State Affinity, Exp No 3
cynomolgus CD32b = molecular target: T8, cynomolgus CD32b (cynomolgus); experiment: SPR, fit Steady State Affinity, Exp No 3
T8 construct: also called CyFcyRIIb

[8] = molecular target: T9, human CD16b (human FcgRIIIB) (human, UniProt O75015 17-200, limits assumed); experiment: SPR, fit Steady State Affinity, Exp No 3
T9 construct: also called HuFcyRIIIb

human CD64 (human FcγRI) [9] = molecular target: T5, human CD64 (human FcγRI); experiment: SPR, fit 1:1 Binding, Exp No 2
cyno BCMA (PPB-17990) = molecular target: T10, cyno BCMA (PPB-17990) (cynomolgus, UniProt A0A2K5UD97 1-53); experiment: SPR (Biacore 8K), NKCE captured by anti-human Fc, antigen as analyte, 1:1 model; Experiment No 3
T10 construct: also called cynomolgus BCMA
Experimental: (§1) Measurements were performed in multicycle kinetics experiments for each antibody using a Biacore 8K instrument. In each multicycle experiment the antibodies were captured via an anti-hum a Fc antibody immobilized on a series S CM5 sensor chip (human antibody capture kit, Cytiva, Uppsala, Catalog No. BR1008-39).
(§2) The antigens, diluted as described above (concentration range 0.1 nM to 50 nM), were injected at a flow rate of 60 μL/min for 240 sec followed by a dissociation phase of 400 sec. All analyte concentrations were run in duplicate together with multiple buffer blanks for double referencing. Regeneration of the capture surface was performed with regeneration solution (3 mol/L MgCl2) for 60 sec at 30 μL/min. Binding kinetics data were evaluated with the Biacore 8K Evaluation Software version 1.1.1.7442 using a 1:1 binding model with mass transport limitation.

[10] = molecular target: T11, recombinant human NKp46 extracellular domain (Gln22-Asn255) with C-terminal 6xHis tag (human, UniProt O76036 22-255); experiment: as above
T11 construct: range 22-255; also called huNKp46
Experimental: as §1, §2

recombinant human BCMA = recombinant human BCMA (human, UniProt Q02223 1-54); experiment: as above
Experimental: as §1, §2

[11] = molecular target: T12, recombinant cynomolgus NKp46 extracellular domain with C-terminal Flag-M2 tag (cynomolgus, UniProt Q95JB9 22-254); experiment: as above
T12 construct: range 22-254; also called cyno NKp46; not shown: C-terminal Flag-M2 tag
Experimental: as §1, §2

[12] = molecular target: human neonatal Fc receptor (FcRn) (human, UniProt P55899 24-297; P61769 21-119); experiment: SPR, binding to huFcRn at pH 6.0
Sequence of human neonatal Fc receptor (FcRn) (P55899 24-297 limits assumed, chain 1 of 2): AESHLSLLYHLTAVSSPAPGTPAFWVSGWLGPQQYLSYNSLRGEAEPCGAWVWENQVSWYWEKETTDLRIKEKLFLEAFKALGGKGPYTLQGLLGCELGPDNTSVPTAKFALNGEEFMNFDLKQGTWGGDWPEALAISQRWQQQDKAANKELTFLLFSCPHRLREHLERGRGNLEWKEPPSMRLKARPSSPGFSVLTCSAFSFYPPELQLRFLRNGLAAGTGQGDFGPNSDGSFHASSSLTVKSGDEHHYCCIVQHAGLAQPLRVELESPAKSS
Sequence of human neonatal Fc receptor (FcRn) (P61769 21-119 limits assumed, chain 2 of 2): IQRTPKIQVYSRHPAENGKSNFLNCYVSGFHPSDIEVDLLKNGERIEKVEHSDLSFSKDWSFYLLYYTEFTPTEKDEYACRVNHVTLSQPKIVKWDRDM

T12 sequence (Q95JB9 22-254): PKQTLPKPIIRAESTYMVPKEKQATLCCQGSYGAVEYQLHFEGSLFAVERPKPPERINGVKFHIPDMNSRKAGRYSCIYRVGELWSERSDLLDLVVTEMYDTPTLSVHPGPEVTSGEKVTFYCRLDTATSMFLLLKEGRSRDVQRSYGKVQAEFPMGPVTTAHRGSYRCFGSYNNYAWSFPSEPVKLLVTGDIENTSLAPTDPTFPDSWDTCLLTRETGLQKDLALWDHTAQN
T10 sequence (A0A2K5UD97 entry or part of it): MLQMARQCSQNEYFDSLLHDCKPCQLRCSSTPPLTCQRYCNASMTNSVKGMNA
T11 sequence (O76036 other isoform, or with tags, fused parts or gaps limits assumed): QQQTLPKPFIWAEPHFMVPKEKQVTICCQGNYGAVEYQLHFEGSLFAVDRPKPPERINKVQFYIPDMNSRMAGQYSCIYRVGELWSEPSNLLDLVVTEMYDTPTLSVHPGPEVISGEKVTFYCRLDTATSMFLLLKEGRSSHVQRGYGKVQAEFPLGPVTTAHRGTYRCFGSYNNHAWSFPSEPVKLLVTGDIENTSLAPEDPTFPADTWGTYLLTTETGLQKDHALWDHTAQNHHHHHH
T2 sequence (P08637 17-208 F176V limits assumed): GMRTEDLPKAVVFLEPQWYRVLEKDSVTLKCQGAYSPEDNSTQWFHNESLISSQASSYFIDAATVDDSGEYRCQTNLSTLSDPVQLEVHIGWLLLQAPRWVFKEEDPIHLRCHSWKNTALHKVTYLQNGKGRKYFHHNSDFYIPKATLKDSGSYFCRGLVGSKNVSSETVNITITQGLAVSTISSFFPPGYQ
T5 sequence (P12314 16-292 limits assumed): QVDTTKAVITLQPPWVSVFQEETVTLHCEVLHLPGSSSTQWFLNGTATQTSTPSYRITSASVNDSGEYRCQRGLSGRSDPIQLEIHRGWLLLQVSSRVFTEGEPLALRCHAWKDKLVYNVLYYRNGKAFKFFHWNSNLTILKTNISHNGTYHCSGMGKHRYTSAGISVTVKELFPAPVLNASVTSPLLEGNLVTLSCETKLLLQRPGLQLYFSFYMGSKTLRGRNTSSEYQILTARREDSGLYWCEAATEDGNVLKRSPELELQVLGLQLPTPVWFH
T9 sequence (O75015 17-200 limits assumed): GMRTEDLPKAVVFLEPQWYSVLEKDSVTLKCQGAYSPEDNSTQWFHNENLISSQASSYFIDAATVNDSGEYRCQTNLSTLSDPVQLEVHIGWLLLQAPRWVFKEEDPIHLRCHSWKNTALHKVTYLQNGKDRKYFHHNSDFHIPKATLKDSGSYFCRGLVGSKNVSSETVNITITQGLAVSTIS
T3 sequence (Q8SPW2 17-208): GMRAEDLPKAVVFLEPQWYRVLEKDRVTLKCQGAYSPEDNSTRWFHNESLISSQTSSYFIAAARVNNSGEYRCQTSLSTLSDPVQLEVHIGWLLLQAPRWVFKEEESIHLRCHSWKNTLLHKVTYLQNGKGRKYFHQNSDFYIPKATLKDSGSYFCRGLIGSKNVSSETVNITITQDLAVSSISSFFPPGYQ

B1: NKp46-BCMA_Fc-ADE-DSB NKCE (bispecific antibody, human IgG1, kappa)
light: QTVVTQEPSLTVSPGGTVTLTCASSTGTVTPSNYANWVQQKPGQAFRGLIGDNNSRPPGTPARFSASLLGGKAALTLSGVQPEDEAEYYCALWFGNQWVFGGGTKLTVLGGGGSGGGGSDIQMTQSPSSLSASVGDRVTITCRASQDISNYLNWYQQKPGKAPKLLIYYTSRLHSGVPSRFSGSGSGTDFTFTISSLQPEDIATYFCQQGNTRPWTFGGGTKVEIKGGGGSGGGGSRTVAAPSVFIFPPSDEQLKSGTASVVCLLNNFYPREAKVQWKVDNALQSGNSQESVTEQDSKDSTYSLSSTLTLSKADYEKHKVYACEVTHQGLSSPVTKSFNRGEC
heavy: QVQLVQSGAEVKKPGSSVKVSCKASGYTFSDYVINWVRQAPGQGLEWMGEIYPGSGTNYYNEKFKAKATITADKSTSTAYMELSSLRSEDTAVYYCARRGRYGLYAMDYWGQGTTVTVSSQVQLVESGGGVVQPGRSLRLSCAASGFTFSNFGMHWVRQAPGRGLEWVAVIWSDETNRYYADSVKGRFTVSRDNVKSTVYLQMNSLISEDTAVYYCARDQQYCSSDSCFTWFDPWGQGTLVTVSSASTKGPSVFPLAPSSKSTSGGTAALGCLVKDYFPEPVTVSWNSGALTSGVHTFPAVLQSSGLYSLSSVVTVPSSSLGTQTYICNVNHKPSNTKVDKKVEPKSCDKTHTCPPCPAPELLAGPDVFLFPPKPKDTLMISRTPEVTCVVVDVSHEDPEVKFNWYVDGVEVHNAKTKPCEEQYNSTYRCVSVLTVLHQDWLNGKEYKCKVSNKALPAPEEKTISKAKGQPREPQVYTLPPCRDELTKNQVSLWCLVKGFYPSDIAVEWESNGQPENNYKTTPPVLDSDGSFFLYSKLTVDKSRWQQGNVFSCSVMHEALHNHYTQKSLSLSPG
chain: DKTHTCPPCPAPELLAGPDVFLFPPKPKDTLMISRTPEVTCVVVDVSHEDPEVKFNWYVDGVEVHNAKTKPCEEQYNSTYRCVSVLTVLHQDWLNGKEYKCKVSNKALPAPEEKTISKAKGQPREPQVCTLPPSRDELTKNQVSLSCAVKGFYPSDIAVEWESNGQPENNYKTTPPVLDSDGSFFLVSKLTVDKSRWQQGNVFSCSVMHEALHNRFTQKSLSLSPG
**Q.** B1 was tested. Which Kd [1] did it give?
**A.** Its Kd is 415 nM.

**Q.** And the Kd [2]?
**A.** Its Kd is 165 nM.

**Q.** And the Kd (cynomolgus CD16)?
**A.** Its Kd is 15.7 nM.

**Q.** What about the Kd [3] of the same binder?
**A.** Its Kd is 16.5 nM.

**Q.** What about the EC50 [4] of the same binder?
**A.** The EC50 was 1.33 µg/mL.

**Q.** What about the Kd (human CD64 (human FcγRI) [5]) of the same binder?
**A.** The Kd was 0.32 nM.

**Q.** And the Kd (cynomolgus CD32a)?
**A.** The Kd was 1700 nM.

**Q.** What about the Kd [6] of the same binder?
**A.** The Kd was 1420 nM.

**Q.** What about the Kd [7] of the same binder?
**A.** The Kd was 963 nM.

**Q.** What about the Kd (cynomolgus CD32b) of the same binder?
**A.** The Kd was 1300 nM.

**Q.** And the Kd [8]?
**A.** The Kd was 2330 nM.

**Q.** And the Kd (human CD64 (human FcγRI) [9])?
**A.** The Kd was 0.27 nM.

**Q.** What about the Kd (cyno BCMA (PPB-17990)) of the same binder?
**A.** Its Kd is 0.3 nM.

**Q.** What about the koff (cyno BCMA (PPB-17990)) of the same binder?
**A.** Its koff is 6e-05 s⁻¹.

**Q.** And the kon (cyno BCMA (PPB-17990))?
**A.** Its kon is 180000 M⁻¹ s⁻¹.

**Q.** What about the Kd [10] of the same binder?
**A.** Its Kd is 12.5 nM.

**Q.** What about the koff [10] of the same binder?
**A.** Its koff is 0.0018 s⁻¹.

**Q.** And the kon [10]?
**A.** The kon was 140000 M⁻¹ s⁻¹.

**Q.** What about the Kd (recombinant human BCMA) of the same binder?
**A.** The Kd was 0.3 nM.

**Q.** And the koff (recombinant human BCMA)?
**A.** Its koff is 5.7e-05 s⁻¹.

**Q.** What about the kon (recombinant human BCMA) of the same binder?
**A.** Its kon is 190000 M⁻¹ s⁻¹.

**Q.** What about the Kd [11] of the same binder?
**A.** Its Kd is 17.8 nM.

**Q.** And the koff [11]?
**A.** The koff was 0.0033 s⁻¹.

**Q.** What about the kon [11] of the same binder?
**A.** Its kon is 190000 M⁻¹ s⁻¹.

**Q.** And the Kd [12]?
**A.** Its Kd is 756 nM.
